# Source: the supplement of paper PMC9233669
# This sample holds only a part of the variants without activity.
# How the values were obtained:
# biotinyl-Val-oxazolone = assay: self-aminoacylation, catalytic enhancement (BVO) (fold over background); higher = more active; k-Seq, kA / k0A0; sequences stand for … in GGGAAUGGAUCCACAUCUACGAAUUC…UUCACUGCAGACUUGACGAAGCUG
# Summary of the method: (§1)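 Catalytic enhancement equals the median kA over the uncatalyzed rate, the latter read from the low-activity peak of a bimodal Gaussian fit. Values of kA came from fitting each sequence's fraction reacted to a pseudo-first-order model, with 1000 bootstraps. Reacted RNA was captured with streptavidin and quantified by triplicate qPCR and Illumina sequencing after 90 minutes at room temperature with 2–1250 μM biotinyl-aminoacyl-oxazolone and 0.43 μM mutagenized RNA pools bearing a 21-nt variable region.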
# biotinyl-Ile-oxazolone = assay: self-aminoacylation, catalytic enhancement (BIO) (fold over background); higher = more active; k-Seq, kA / k0A0; sequences stand for … in GGGAAUGGAUCCACAUCUACGAAUUC…UUCACUGCAGACUUGACGAAGCUG
# Summary of the method: as §1
# biotinyl-Phe-oxazolone = assay: self-aminoacylation, catalytic enhancement (BFO) (fold over background); higher = more active; k-Seq, kA / k0A0; sequences stand for … in GGGAAUGGAUCCACAUCUACGAAUUC…UUCACUGCAGACUUGACGAAGCUG
# Summary of the method: as §1
# biotinyl-Met-oxazolone = assay: self-aminoacylation, catalytic enhancement (BMO) (fold over background); higher = more active; k-Seq, kA / k0A0; sequences stand for … in GGGAAUGGAUCCACAUCUACGAAUUC…UUCACUGCAGACUUGACGAAGCUG
# Summary of the method: as §1
# biotinyl-Trp-oxazolone = assay: self-aminoacylation, catalytic enhancement (BWO) (fold over background); higher = more active; k-Seq, kA / k0A0; sequences stand for … in GGGAAUGGAUCCACAUCUACGAAUUC…UUCACUGCAGACUUGACGAAGCUG
# Summary of the method: as §1
# biotinyl-Leu-oxazolone = assay: self-aminoacylation, catalytic enhancement (BLO) (fold over background); higher = more active; k-Seq, kA / k0A0; sequences stand for … in GGGAAUGGAUCCACAUCUACGAAUUC…UUCACUGCAGACUUGACGAAGCUG
# Summary of the method: as §1
Sequence,self-aminoacylation (biotinyl-Val-oxazolone),self-aminoacylation (biotinyl-Ile-oxazolone),self-aminoacylation (biotinyl-Phe-oxazolone),self-aminoacylation (biotinyl-Met-oxazolone),self-aminoacylation (biotinyl-Trp-oxazolone),self-aminoacylation (biotinyl-Leu-oxazolone)
AAUCACCUAGGUAAUCGGGUG [Fam2.2 aminoacylation ribozyme variant],2.08,2.64,14.1,2.67,4.18,3.17
AGUCACCUAGGUCAUCGGGUG [Fam2.2 aminoacylation ribozyme variant],4.99,4.81,38.1,6.24,7.24,6.74
CUACAUCAAACAAUCGGUCUU [Fam1A.1 aminoacylation ribozyme variant],0.748,0.69,1.45,0.791,1.25,0.615
AACUUUGCUAAUAGUCGCCAG [Fam3.1 aminoacylation ribozyme variant],2.87,2.68,10.9,2.59,2.35,3.5
CUACUCCAAACAAUCGGGCUG [Fam1A.1 aminoacylation ribozyme variant],1.01,1.36,1.02,1.61,1.14,1.29
AUUGCCCUGGCCAUCGAGUGA [Fam2.1 aminoacylation ribozyme variant],2.74,2.48,25.2,3.8,4.87,4.96
AUUCACCGAGGUCAUGGGGUG [Fam2.2 aminoacylation ribozyme variant],6.55,6.15,86.3,11.4,11.4,14.7
CCACACUUCAAGCAAUCCUUC [Fam1B.1 aminoacylation ribozyme variant],0.899,0.89,1.19,0.649,0.533,0.44
ACACACUUCAAGCAAUCGGUU [Fam1B.1 aminoacylation ribozyme variant],2.05,2.21,4.53,2.44,4.24,2.26
CCACAGUUCAUGCAAUCGGUC [Fam1B.1 aminoacylation ribozyme variant],1.12,1.1,0.779,0.972,0.884,1.16
CUACUUCAAACAAUAGGUCGG [Fam1A.1 aminoacylation ribozyme variant],0.693,0.792,0.7,0.643,0.676,0.754
CCACUUCAAACUAUCGGUCUG [Fam1A.1 aminoacylation ribozyme variant],1.46,1.44,0.866,1.39,1.39,1.16
CUACUUCACACAAUCGUUCUG [Fam1A.1 aminoacylation ribozyme variant],0.61,0.649,0.66,0.477,0.392,0.484
AUUACCCUGGUGAUCGCGUGA [Fam2.1 aminoacylation ribozyme variant],4.19,3.45,44.2,4.66,6.27,4.38
GUUCACCUAGGUCCUCGGGUG [Fam2.2 aminoacylation ribozyme variant],4.16,3.49,25.5,4.16,5.27,4.67
CAGUUUGCUAUUAGUCGCAAG [Fam3.1 aminoacylation ribozyme variant],1.22,1.24,1.88,1.25,1.29,1.5
AUCCACCGAGGUCAUCGGGUG [Fam2.2 aminoacylation ribozyme variant],6.67,5.2,125,9.91,7.06,13.4
CUACUUCAGACAAUCGGUCUC [Fam1A.1 aminoacylation ribozyme variant],0.977,0.936,1.09,0.857,0.825,0.895
CCACACAUCAAGCAAUCGGUG [Fam1B.1 aminoacylation ribozyme variant],3.26,3.27,31.6,4.98,5.14,6.65
AAGUUUCUUAAUAGUCGCAAG [Fam3.1 aminoacylation ribozyme variant],1.69,1.95,3.21,1.56,1.66,1.92
AUUACACUGGUCAUCGAGUUA [Fam2.1 aminoacylation ribozyme variant],1.02,1.18,0.876,1.05,1.38,1.09
AUUACCCUGGUCAUAUAGUGA [Fam2.1 aminoacylation ribozyme variant],5.51,5.04,69.1,11.2,12.4,10.7
CCACAUUUCUAGCAAUCGGUC [Fam1B.1 aminoacylation ribozyme variant],1.76,1.83,1.49,1.35,1.22,1.4
CUAGUUCAAACAAUCGCUCUG [Fam1A.1 aminoacylation ribozyme variant],0.934,0.832,0.847,0.827,0.844,0.798
AUUCACAUAGGUCAGCGGGUG [Fam2.2 aminoacylation ribozyme variant],2.91,3.26,22.6,3.83,5.03,4.15
AUAACCCUGGUCAUCGAGAGA [Fam2.1 aminoacylation ribozyme variant],0.839,1.01,1.12,0.604,0.804,0.822

Sequence,self-aminoacylation (biotinyl-Val-oxazolone),self-aminoacylation (biotinyl-Ile-oxazolone),self-aminoacylation (biotinyl-Phe-oxazolone),self-aminoacylation (biotinyl-Met-oxazolone),self-aminoacylation (biotinyl-Trp-oxazolone),self-aminoacylation (biotinyl-Leu-oxazolone)
AUUACCCUGGUCAUGGAGAGA [Fam2.1 aminoacylation ribozyme variant],1.18,0.877,1.19,0.941,1.77,1.2
AGUACUCUGGUCAUCGAGUGA [Fam2.1 aminoacylation ribozyme variant],3.01,3.14,11.4,4.15,3.97,3.94
ACUAACCUAGGUCAUCGGGUG [Fam2.2 aminoacylation ribozyme variant],3.36,5.7,40.7,6.8,6.91,8.64
CUACUUCAAACCGUCGGUCUG [Fam1A.1 aminoacylation ribozyme variant],0.917,0.831,0.289,0.847,0.872,0.71
AUGUUUACUAAUAGUCGCAAG [Fam3.1 aminoacylation ribozyme variant],1.7,1.67,1.92,1.61,2.07,1.52
AUUACUCUCGUCAUCGAGUGA [Fam2.1 aminoacylation ribozyme variant],2.09,2.11,8.87,2.92,4.11,3.39
UUUCACCUAGGUCAUCGUGUG [Fam2.2 aminoacylation ribozyme variant],1.27,1.19,4.69,1.43,1.34,1.19
CCACACUCCAAGCAAUCGCUC [Fam1B.1 aminoacylation ribozyme variant],2.56,1.92,0.753,1.29,2.47,1.38
AUUCACCUAGGUCAUCGGGCG [Fam2.2 aminoacylation ribozyme variant],4.82,4.76,13.8,7.58,5.66,10.3
AAGUUCGCUAAUAUUCGCAAG [Fam3.1 aminoacylation ribozyme variant],1.65,1.71,2.16,1.36,1.25,1.84
AUUCACAUCGGUCAUCGGGUG [Fam2.2 aminoacylation ribozyme variant],4.81,4.36,57.5,8.09,5.93,9.09
AAGUUCGAUAAUAGUCGCAAG [Fam3.1 aminoacylation ribozyme variant],1.28,1.44,2.51,1.39,1.33,1.55
CCACGUCAAACAAUCGGUCUG [Fam1A.1 aminoacylation ribozyme variant],1.95,1.89,2.2,1.75,2.31,1.36
AUUACACUGGCCAUCGAGUGA [Fam2.1 aminoacylation ribozyme variant],3.07,3.13,15.9,6.45,5.64,6.8
AUGUUUGCUAAGAGUCGCAAG [Fam3.1 aminoacylation ribozyme variant],1.28,1.35,2.16,1.35,1.68,1.39
CAGUUUGCUAAUAGUCGCACG [Fam3.1 aminoacylation ribozyme variant],1.05,1.3,1.25,1.1,1.46,1.35
CUUACCCUGGUCAUCGAGUUA [Fam2.1 aminoacylation ribozyme variant],1.73,1.53,4.79,2.5,2.08,2.36
CGACGUCAAACAAUCGGUCUG [Fam1A.1 aminoacylation ribozyme variant],1.66,1.25,4.02,1.84,1.82,1.24
AUUACCCUGGUCAUGGUGUGA [Fam2.1 aminoacylation ribozyme variant],1.18,1.27,4.16,1.64,2.24,1.84
GUUACCCCGGUCAUCGAGUGA [Fam2.1 aminoacylation ribozyme variant],3.38,3.82,45.8,6.95,8.27,7.66
AUCACCCUGGUCAUCUAGUGA [Fam2.1 aminoacylation ribozyme variant],5.63,5.3,85,12.8,12.9,11.7
AAGUUUGCGAAUGGUCGCAAG [Fam3.1 aminoacylation ribozyme variant],1.11,0.908,5.78,0.97,1.47,0.728
AGUACCCUGGUCAUGGAGUGA [Fam2.1 aminoacylation ribozyme variant],2.27,2.31,11,2.7,2.82,3.1
AAGUUGGAUAAUAGUCGCAAG [Fam3.1 aminoacylation ribozyme variant],1.01,1.17,1.31,1.11,1.12,0.984
AUUUACCGAGGUCAUCGGGUG [Fam2.2 aminoacylation ribozyme variant],4.5,4.97,64.7,8.5,6.88,11.1
